For test [1], the target named is HER2 (UniProt P04626). Nature of the test: SPR; storage 7 d RT; SD 1.E-10.
Test [2] concerns the target HER2 (UniProt P04626). In words: SPR; storage -80 (fresh protein); SD 1.E-10; control row printed a second time. In general terms: Surface plasmon resonance follows binding to a sensor surface in real time, without labels.
Test [3] addresses HER2 (UniProt P04626). Nature of the test: SPR; average of measurements with different directionality.
In test [4] the target is HER2 (UniProt P04626). Nature of the test: SPR; storage 7 d RT; SD 1.E-10; control row printed a second time.
The target in test [5] is HER2 (UniProt P04626). Nature of the test: SPR; storage -80 (fresh protein); SD 1.E-10.
In test [6] the target is Tissue factor (TF) (UniProt P13726). Nature of the test: SPR; storage 7 d RT; SD 2.E-11.
Test [7] shares this target. In words: SPR; storage 7 d RT; SD 2.E-11; control row printed a second time.
The target is the same in test [8]. Nature of the test: SPR; Fab captured on anti-hIgG chip, TF flowed over at 300 nM.
For test [9] the target is unchanged. Nature of the test: SPR; average of measurements with different directionality.
In test [10] the target is CD19 on RAJI (CD19+) cells (UniProt P15391). Nature of the test: live cell ELISA on RAJI (CD19+) cells; legend: OD450 below 0.100 at 1/60 dilution, but higher dilutions positive (higher than neg control). (In general: An ELISA detects its analyte on a solid surface through an enzyme-linked reagent.)
For test [11], the target named is CD3 on HBP-ALL (CD3+) cells (UniProt P07766). Nature of the test: live cell ELISA on HBP-ALL (CD3+) cells; OD450 grade at 1/60 dilution.

Broadly, the Kd is the constant that tells how readily two partners part at equilibrium.

In the case of Fab 4D5 (control), variant 695, the Kd was 0.8 nM in [1]; 0.6 nM in [2]; 0.837 nM in test [3]; 0.8 nM in test [4]; 0.6 nM in test [5].
Regarding Fab D3H44 (control), variant 696, the Kd in test [6] was found to be 0.08 nM; in test [7], 0.08 nM; in [8] it was 0.0152 nM; in [9], 0.0515 nM.
In test [3], “Variant 506, control antibody that binds HER2, based on the sequence of Herceptin” displayed a Kd of 0.527 nM.
For the substance “teplizumab-hOKT3-CD3 FSA, variant 2177 (antibody)”, the OD450 at 1/60 dilution was under 0.1 od in [10] and over 2 od in test [11].

Values taken from patent US20140072581A1.
